Reference: the supplement of paper PMC7877785
± gives the uncertainty stated by the source.

Test: self-splicing fitness, log relative to wild type (ln ratio); higher = more splicing; Tetrahymena group I intron in knt gene, E. coli kanamycin selection, DiMSum; sequences stand for … in CUCUCU…GGAGGGAAAAGUUAUCAGGCAUGCACCUGGUAGCUAGUCUUUAAACCAAUAGAUUGCAUCGGUUUAAAAGGCAAGACCGUCAAAUUGCGGGAAAGGGGUCAACAGCCGUUCAGUACCAAGUCUCAGGGGAAACUUUGAGAUGGCCUUGCAAAGGGUAUGGUAAUAAGCUGACGGACAUGGUCCUAACCACGCAGCCAAGUCCUAAGUCAACAGAUCUUCUGUUGAUAUGGAUGCAGUUCACAGACUAAAUGUCGGUCGGGGAAGAUGUAUUCUUCUCAUAAGAUAUAGUCGGACCUCUCCUUAAUGGGAGCUAGCGGAUGAAGUGAUGCAACACUGGAGCCGCUGGGAACUAAUUUGUAUGCGAAAGUAUAUUGAUUAGUUUUGGAGUACUCGUGGUCG
Procedure, shortened: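 A randomised library covering all eight P1ex-region intron nucleotides was built with the intron in the knt kanamycin-resistance gene on pET-22b(+) and held in E. coli BL21(DE3). Cells were grown overnight at 37°C or 30°C on LB agar, with or without 25 μg/mL kanamycin, plus 100 μg/mL carbenicillin, 50 μM IPTG and 0.2% rhamnose, and pooled colonies were amplicon-sequenced on an Illumina HiSeq 2500. DiMSum fitness is the error-weighted combination of wild-type-normalised replicate fold changes, kanamycin versus none.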

Row | Sequence | self-splicing fitness (ln) (30 °C) | self-splicing fitness (ln) (37 °C)
1 | AUAGAGCAAUAUUACGGAGA | -1.97 ± 0.26 | -2.31 ± 0.39
2 | AUAGAGCAAUAUUACGGCCU | -0.822 ± 0.2 | -0.365 ± 0.21
3 | AUAGAGCAAUAUUACGGCGU | 0.102 ± 0.079 | 0.527 ± 0.12
4 | AUAGAGCAAUAUUACGGCUC | -0.971 ± 0.11 | -0.403 ± 0.23
5 | AUAGAGCAAUAUUACGGCUU | -0.934 ± 0.12 | -1.34 ± 0.14
6 | AUAGAGCAAUAUUACGGGAC | -2.71 ± 0.18 | -2.36 ± 0.27
7 | AUAGAGCAAUAUUACGGGGA | – | -2.44 ± 0.28
8 | AUAGAGCAAUAUUACGGUAG | -3.5 ± 0.16 | -1.38 ± 0.13
9 | AUAGAGCAAUAUUACGGUUA | -1.49 ± 0.083 | -1.05 ± 0.11
10 | AUAGAGCAAUAUUACGUCAA | -2.19 ± 0.23 | -1.77 ± 0.24
11 | AUAGAGCAAUAUUACGUCUA | -0.2 ± 0.076 | 0.816 ± 0.11
12 | AUAGAGCAAUAUUACGUGAU | -2.02 ± 0.12 | -0.825 ± 0.17
13 | AUAGAGCAAUAUUACGUGGU | -2.91 ± 0.19 | -1.83 ± 0.2
14 | AUAUAGCAAUAUUACGACAC | -1.5 ± 0.23 | -0.312 ± 0.29
15 | AUAUAGCAAUAUUACGAGCA | -2.32 ± 0.24 | -0.917 ± 0.18
16 | AUAUAGCAAUAUUACGAUCC | -0.6 ± 0.16 | -0.578 ± 0.28
17 | AUAUAGCAAUAUUACGCAAA | -1.94 ± 0.24 | -1.69 ± 0.24
18 | AUAUAGCAAUAUUACGCUAA | -1.87 ± 0.3 | -0.768 ± 0.27
19 | AUAUAGCAAUAUUACGCUGG | -2.06 ± 0.2 | -1.51 ± 0.32
20 | AUAUAGCAAUAUUACGCUUG | -1.42 ± 0.11 | -0.589 ± 0.13
21 | AUAUAGCAAUAUUACGGGCA | -1.67 ± 0.17 | -1.29 ± 0.19
22 | AUAUAGCAAUAUUACGUAAC | -1.11 ± 0.21 | -1.86 ± 0.38
23 | AUAUAGCAAUAUUACGUAGG | -3.06 ± 0.21 | -0.744 ± 0.16
24 | AUAUAGCAAUAUUACGUCGG | -3.37 ± 0.33 | -2.03 ± 0.28
25 | AUAUAGCAAUAUUACGUGUG | -3.82 ± 0.27 | -2.46 ± 0.18

Row | Sequence | self-splicing fitness (ln) (30 °C) | self-splicing fitness (ln) (37 °C)
26 | AUCAAGCAAUAUUACGAACG | -1.61 ± 0.13 | -0.462 ± 0.13
27 | AUCAAGCAAUAUUACGAAGA | -1.66 ± 0.19 | -1.64 ± 0.23
28 | AUCAAGCAAUAUUACGAGCC | -3.07 ± 0.32 | -1.23 ± 0.31
29 | AUCAAGCAAUAUUACGAUAG | -2.36 ± 0.35 | -1.63 ± 0.43
30 | AUCAAGCAAUAUUACGCCGU | -1.19 ± 0.087 | -0.429 ± 0.1
31 | AUCAAGCAAUAUUACGCCUU | -0.799 ± 0.094 | -0.146 ± 0.12
32 | AUCAAGCAAUAUUACGCGAU | -4.42 ± 0.33 | -3.08 ± 0.3
33 | AUCAAGCAAUAUUACGCGCU | -1.27 ± 0.12 | -0.36 ± 0.11
34 | AUCAAGCAAUAUUACGCUAC | – | -0.41 ± 0.33
35 | AUCAAGCAAUAUUACGCUCU | -0.452 ± 0.07 | 0.0492 ± 0.082
36 | AUCAAGCAAUAUUACGCUGA | -2.51 ± 0.13 | -1.46 ± 0.12
37 | AUCAAGCAAUAUUACGGACC | -1.47 ± 0.12 | -1.22 ± 0.086
38 | AUCAAGCAAUAUUACGGCCA | -0.51 ± 0.074 | -0.264 ± 0.079
39 | AUCAAGCAAUAUUACGGCUC | -0.551 ± 0.063 | -0.7 ± 0.076
40 | AUCAAGCAAUAUUACGGCUU | -2.87 ± 0.13 | -1.54 ± 0.14
41 | AUCAAGCAAUAUUACGGUGA | -1.36 ± 0.096 | -0.818 ± 0.1
42 | AUCAAGCAAUAUUACGGUUC | -3.53 ± 0.24 | -2.01 ± 0.13
43 | AUCAAGCAAUAUUACGUCUA | -0.821 ± 0.073 | -0.438 ± 0.076
44 | AUCAAGCAAUAUUACGUCUG | -1.16 ± 0.062 | -0.603 ± 0.076
45 | AUCAAGCAAUAUUACGUUCG | -1.5 ± 0.086 | -0.132 ± 0.091
46 | AUCAAGCAAUAUUACGUUUA | -1.73 ± 0.1 | -1.31 ± 0.093
47 | AUCAAGCAAUAUUACGUUUG | -2.87 ± 0.15 | -2.43 ± 0.18
48 | AUCCAGCAAUAUUACGAACC | -0.394 ± 0.1 | -0.346 ± 0.15
49 | AUCCAGCAAUAUUACGAACG | -0.746 ± 0.08 | -0.625 ± 0.12
50 | AUCCAGCAAUAUUACGACCC | -1.24 ± 0.071 | -0.202 ± 0.089

Row | Sequence | self-splicing fitness (ln) (30 °C) | self-splicing fitness (ln) (37 °C)
51 | AUCCAGCAAUAUUACGACCU | -1.86 ± 0.2 | 0.313 ± 0.18
52 | AUCCAGCAAUAUUACGACGC | -1.16 ± 0.12 | -0.49 ± 0.15
53 | AUCCAGCAAUAUUACGAGCC | -3.17 ± 0.25 | -3.32 ± 0.33
54 | AUCCAGCAAUAUUACGAUGA | -0.862 ± 0.086 | -0.285 ± 0.094
55 | AUCCAGCAAUAUUACGAUGG | -3.82 ± 0.27 | -2.85 ± 0.25
56 | AUCCAGCAAUAUUACGAUUC | -1.5 ± 0.11 | -0.86 ± 0.12
57 | AUCCAGCAAUAUUACGCAAU | -1.38 ± 0.064 | -0.773 ± 0.089
58 | AUCCAGCAAUAUUACGCAGU | -2.72 ± 0.11 | -0.839 ± 0.09
59 | AUCCAGCAAUAUUACGGCAG | -1.78 ± 0.085 | -0.158 ± 0.097
60 | AUCCAGCAAUAUUACGGGAA | -1.17 ± 0.079 | -0.654 ± 0.082
61 | AUCCAGCAAUAUUACGGGGG | -3.15 ± 0.16 | -1.96 ± 0.15
62 | AUCCAGCAAUAUUACGGGGU | -4.35 ± 0.18 | -2.19 ± 0.13
63 | AUCCAGCAAUAUUACGGUAC | -1.77 ± 0.12 | -0.693 ± 0.14
64 | AUCCAGCAAUAUUACGUAGG | -2.91 ± 0.14 | -1.49 ± 0.12
65 | AUCCAGCAAUAUUACGUUUC | -4.16 ± 0.25 | -2.05 ± 0.2
66 | AUCGAGCAAUAUUACGAGAC | -1.99 ± 0.32 | –
67 | AUCGAGCAAUAUUACGAGCG | -2.35 ± 0.33 | -1.81 ± 0.27
68 | AUCGAGCAAUAUUACGCACU | -1.25 ± 0.12 | -0.213 ± 0.14
69 | AUCGAGCAAUAUUACGCAUG | -3.62 ± 0.37 | -2.62 ± 0.26
70 | AUCGAGCAAUAUUACGCCCU | -3.05 ± 0.36 | –
71 | AUCGAGCAAUAUUACGCGCG | -2.29 ± 0.15 | -0.653 ± 0.16
72 | AUCGAGCAAUAUUACGGUGC | -2.54 ± 0.16 | -3.15 ± 0.43
73 | AUCGAGCAAUAUUACGGUGU | -2.74 ± 0.1 | -1.71 ± 0.14
74 | AUCGAGCAAUAUUACGUCAA | -2.72 ± 0.25 | -1.3 ± 0.29
75 | AUCGAGCAAUAUUACGUCAC | – | -1.29 ± 0.45

Row | Sequence | self-splicing fitness (ln) (30 °C) | self-splicing fitness (ln) (37 °C)
76 | AUCGAGCAAUAUUACGUUCG | -3.25 ± 0.2 | -2.52 ± 0.24
77 | AUCUAGCAAUAUUACGAAUU | -2.94 ± 0.18 | -1.74 ± 0.19
78 | AUCUAGCAAUAUUACGACUA | -0.918 ± 0.2 | -0.511 ± 0.16
79 | AUCUAGCAAUAUUACGAGCA | -0.993 ± 0.18 | -0.654 ± 0.2
80 | AUCUAGCAAUAUUACGCAAA | -2.59 ± 0.29 | -3.24 ± 0.39
81 | AUCUAGCAAUAUUACGCAGC | -2.64 ± 0.35 | -2.06 ± 0.31
82 | AUCUAGCAAUAUUACGCGCU | -1.97 ± 0.23 | -0.909 ± 0.2
83 | AUCUAGCAAUAUUACGCUAA | -2.07 ± 0.12 | -0.871 ± 0.12
84 | AUCUAGCAAUAUUACGCUGU | -1.61 ± 0.14 | -1.17 ± 0.18
85 | AUCUAGCAAUAUUACGCUUU | -2.3 ± 0.17 | -0.151 ± 0.12
86 | AUCUAGCAAUAUUACGGAUA | -3 ± 0.46 | -2.05 ± 0.26
87 | AUCUAGCAAUAUUACGGCGA | -0.505 ± 0.14 | -0.448 ± 0.16
88 | AUCUAGCAAUAUUACGGUAU | -1.54 ± 0.1 | -1.19 ± 0.13
89 | AUCUAGCAAUAUUACGGUUC | -2.94 ± 0.32 | -2.34 ± 0.32
90 | AUCUAGCAAUAUUACGUAAA | -2.41 ± 0.15 | -1.29 ± 0.14
91 | AUCUAGCAAUAUUACGUACG | -2.01 ± 0.23 | -1.04 ± 0.2
92 | AUCUAGCAAUAUUACGUCGU | -0.83 ± 0.1 | -1.21 ± 0.11
93 | AUCUAGCAAUAUUACGUGAG | -0.412 ± 0.095 | -0.00344 ± 0.17
94 | AUCUAGCAAUAUUACGUGGU | – | -2.85 ± 0.38
95 | AUCUAGCAAUAUUACGUUCG | -1.28 ± 0.091 | -0.393 ± 0.11
96 | AUCUAGCAAUAUUACGUUGC | -3.28 ± 0.28 | -3.03 ± 0.37
97 | AUGAAGCAAUAUUACGAACA | -0.423 ± 0.1 | 0.795 ± 0.15
